In patent publication JP2006342173A:

How the values were obtained:
[1] = molecular target: ヒトCD40 (human CD40 expressed on cells) (human) (UniProt P25942); assay: cell-based or functional assay
[2] = molecular target: ヒトCD40ヒトFC (human CD40 extracellular region fused to human IgG1 FC) (human) (UniProt P25942); assay: SPR, BIAcore 2000; CD40 human FC immobilised on CM5; control IgG added first, then soluble CD40L 10 ug/ml; difference before and after CD40L

Row | 扁桃腺B細胞の増殖抑制 ([3H]チミジン; flag標識CD40L+エンハンサー抗体刺激) [1] [%] | CD40Lの結合量 (RU) [2] [RU] | Substance
1 | 50 | – | 5D12抗体 (mouse anti-human CD40 antibody, ATCC No.HB-11339)
2 | – | 100 | 可溶性CD40リガンド (soluble CD40 ligand, FLAG-tagged, ALEXIS CORPORATION) (from UniProt P29965 116-261)
